Test results as given in US6054572.

Target: human fibronectin purified from a human plasma fraction on Gelatin Sepharose (human) (UniProt P02751)

“D1-D4 (709-886) polypeptide of the fibronectin binding protein of Staphylococcus aureus J2385, expressed from pBROC 520 in E. coli BL21 (DE3)” was tested, and the % Adherence Inhibition of S. aureus 8325.4 to fibronectin-coated PMMA coverslips (at 100 µg/ml D1-D4 (709-886)) was 97.5% and the % Adherence Inhibition of S. aureus J2385 to fibronectin-coated PMMA coverslips (at 100 µg/ml D1-D4 (709-886)) was 78.4%.
